The values that follow come from patent US20060099643A1, “Method for determining the regulation of xenobiotic removal” (priority 2002, published 2006).

Data set [1] has as its target T1, SXR (Homo sapiens, UniProt O75469).
T1 sequence (O75469 1-434): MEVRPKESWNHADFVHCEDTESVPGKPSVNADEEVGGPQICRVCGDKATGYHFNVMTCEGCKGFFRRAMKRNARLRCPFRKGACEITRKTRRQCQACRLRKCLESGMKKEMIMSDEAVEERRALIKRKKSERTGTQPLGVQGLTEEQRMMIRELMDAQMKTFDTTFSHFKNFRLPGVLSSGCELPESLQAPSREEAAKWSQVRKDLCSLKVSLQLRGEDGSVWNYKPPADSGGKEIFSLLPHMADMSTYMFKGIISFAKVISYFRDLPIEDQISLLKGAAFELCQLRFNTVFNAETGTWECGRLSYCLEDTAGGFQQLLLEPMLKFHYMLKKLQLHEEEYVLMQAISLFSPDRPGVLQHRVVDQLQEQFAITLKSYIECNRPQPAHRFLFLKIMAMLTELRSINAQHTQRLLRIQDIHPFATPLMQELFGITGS
Description: Microplate thermal shift assay (Thermofluor) of SXR with ligands, co-activator peptide SRC1-NR2 and co-repressor peptide NCoR-1. As to conditions: for ΔΔTm SRC1-NR2 / ΔTm ligand: SXR 6 μM, ligand 50 μM; for ΔΔTm SRC1-NR2: co-activator peptide SRC1-NR2 100 μM, change from the receptor-ligand ΔTm; for ΔTm ligand: average of four experiments; for Probability Agonist (statistical probability of agonist state): computed from affinities derived from ΔΔTm with co-regulator peptides (FIG. 3); for ΔTm at 100 µM: read-out: ΔΔTm NcoR1-NR2. As for the experimental part: A 2 μL ligand solution at 2 times the final concentration was dispensed with a micropipette into a 384 well black wall Greiner plate. Then, 2 μL of the protein dye solution was dispensed on top of the ligand solution in the 384 well plate. The plates were spun to ensure mixing of the protein-dye and ligand solutions followed by layering of 1 μL of silicone oil to prevent evaporation during heating of the samples. […] The values for the co-regulators represent a change in Tm stabilization from the receptor-ligand ΔTm values.
A general note: Differential scanning fluorimetry follows unfolding on heating by fluorescence.

Data set [2] concerns the target T1, SXR. As to conditions: from Ekins & Erickson, Drug Metabolism and Disposition, 30, 96-99 and references therein; cited from earlier work.
The target in data set [3] is T2, SXR (UniProt O75469 130-434, limits assumed).
T2 construct: also called steroid and xenobiotic receptor; steroid X receptor
T2 sequence (looked up): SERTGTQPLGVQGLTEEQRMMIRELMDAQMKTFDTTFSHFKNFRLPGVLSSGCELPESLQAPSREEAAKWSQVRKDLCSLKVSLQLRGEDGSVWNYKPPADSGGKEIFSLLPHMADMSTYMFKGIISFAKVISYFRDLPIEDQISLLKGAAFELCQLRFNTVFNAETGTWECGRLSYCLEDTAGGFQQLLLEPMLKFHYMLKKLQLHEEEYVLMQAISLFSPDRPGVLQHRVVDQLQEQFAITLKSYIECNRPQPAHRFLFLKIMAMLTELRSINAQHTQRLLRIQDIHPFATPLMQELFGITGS
The data set is described as follows: Thermofluor thermal shift; SXR 6 µM with lovastatin 50 µM; peptide 100 µM.

The target of data set [4] is T2, SXR. The data set is described as follows: Thermofluor thermal shift; SXR 6 µM, ligand free; peptide 100 µM.
Data set [5] deals with T3, ER-β (UniProt Q92731 256-505, limits assumed).
T3 construct: also called estrogen receptor beta
T3 sequence (Q92731 256-505 limits assumed): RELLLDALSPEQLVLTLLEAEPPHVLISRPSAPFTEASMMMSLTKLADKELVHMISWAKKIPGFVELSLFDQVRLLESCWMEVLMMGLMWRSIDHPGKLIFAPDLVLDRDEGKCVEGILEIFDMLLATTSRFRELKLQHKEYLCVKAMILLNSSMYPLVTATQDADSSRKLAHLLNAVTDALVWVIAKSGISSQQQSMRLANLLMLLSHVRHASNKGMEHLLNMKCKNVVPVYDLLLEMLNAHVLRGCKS
The data set is described as follows: Thermofluor thermal shift; ER-β 8 µM with ICI-182780 20 µM; peptide 100 µM.

Data set [6] has as its target T2, SXR. Description: Thermofluor thermal shift; SXR 6 µM with hydrocortisone 50 µM; peptide 100 µM.
Data set [7] deals with T4, ER-α (UniProt P03372 297-554, limits assumed).
T4 construct: also called estrogen receptor alpha
T4 sequence (looked up): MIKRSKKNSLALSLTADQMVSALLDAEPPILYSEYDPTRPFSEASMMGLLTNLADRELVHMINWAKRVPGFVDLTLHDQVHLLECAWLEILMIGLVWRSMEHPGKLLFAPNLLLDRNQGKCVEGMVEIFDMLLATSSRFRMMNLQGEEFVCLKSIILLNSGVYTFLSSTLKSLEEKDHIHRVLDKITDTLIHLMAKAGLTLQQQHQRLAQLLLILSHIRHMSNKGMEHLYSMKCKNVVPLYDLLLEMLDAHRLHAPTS
The data set is described as follows: Thermofluor thermal shift; ER-α 8 µM with tamoxifen 20 µM; peptide 100 µM.

Data set [8] addresses T3, ER-β. The data set is described as follows: Thermofluor thermal shift; ER-β 8 µM with 17-α-ethylene-E2 20 µM; peptide 100 µM.
For data set [9], the target named is T2, SXR. The data set is described as follows: Thermofluor thermal shift; SXR 6 µM with clofibrate 50 µM; peptide 100 µM.
Data set [10] has as its target T3, ER-β. The data set is described as follows: Thermofluor thermal shift; ER-β 8 µM with tamoxifen 20 µM; peptide 100 µM.
Data set [11] has as its target T2, SXR. Description: Thermofluor thermal shift; SXR 6 µM with lithocholic acid 50 µM; peptide 100 µM.
The target in data set [12] is T4, ER-α. The data set is described as follows: Thermofluor thermal shift; ER-α 8 µM with ICI-182780 20 µM; peptide 100 µM.
Data set [13] has as its target T2, SXR. Description: Thermofluor thermal shift; SXR 6 µM with cortisone 50 µM; peptide 100 µM.
Data set [14] concerns the target T2, SXR. Description: Thermofluor thermal shift; SXR 6 µM with androsterone 50 µM; peptide 100 µM.
For data set [15], the target named is T4, ER-α. Description: Thermofluor thermal shift; ER-α 8 µM with estradiol 20 µM; peptide 100 µM.
In data set [16] the target is T4, ER-α. Description: Thermofluor thermal shift; ER-α 8 µM with 4-OH-tamoxifen 20 µM; peptide 100 µM.
In data set [17] the target is T3, ER-β. The data set is described as follows: Thermofluor thermal shift; ER-β 8 µM with estradiol 20 µM; peptide 100 µM.
The target in data set [18] is T2, SXR. The data set is described as follows: Thermofluor thermal shift; SXR 6 µM with corticosterone 50 µM; peptide 100 µM.
The target of data set [19] is T2, SXR. The data set is described as follows: Thermofluor thermal shift; SXR 6 µM with 17-α-hydroxyprogesterone 50 µM; peptide 100 µM.
The target in data set [20] is T3, ER-β. Description: Thermofluor thermal shift; ER-β 8 µM with 2-methoxy-E2 20 µM; peptide 100 µM.
For data set [21], the target named is T4, ER-α. The data set is described as follows: Thermofluor thermal shift; ER-α 8 µM with estrone 20 µM; peptide 100 µM.
Data set [22] has as its target T3, ER-β. Description: Thermofluor thermal shift; ER-β 8 µM with estrone 20 µM; peptide 100 µM.
For data set [23], the target named is T2, SXR. The data set is described as follows: Thermofluor thermal shift; SXR 6 µM with taxol 50 µM; peptide 100 µM.
The target of data set [24] is T2, SXR. Description: Thermofluor thermal shift; SXR 6 µM with 11-α-hydroxy-progesterone 50 µM; peptide 100 µM.
For data set [25], the target named is T3, ER-β. Description: Thermofluor thermal shift; ER-β 8 µM with 4-OH-tamoxifen 20 µM; peptide 100 µM.
In data set [26] the target is T3, ER-β. The data set is described as follows: Thermofluor thermal shift; ER-β 8 µM, no ligand; peptide 100 µM.
Data set [27] concerns the target T2, SXR. The data set is described as follows: Thermofluor thermal shift; SXR 6 µM with estradiol 50 µM; peptide 100 µM.
For data set [28], the target named is T4, ER-α. The data set is described as follows: Thermofluor thermal shift; ER-α 8 µM with 17-α-ethylene-E2 20 µM; peptide 100 µM.
In data set [29] the target is T4, ER-α. The data set is described as follows: Thermofluor thermal shift; ER-α 8 µM with 2-methoxy-E2 20 µM; peptide 100 µM.
Data set [30] deals with T4, ER-α. Description: Thermofluor thermal shift; ER-α 8 µM, no ligand; peptide 100 µM.
Data set [31] concerns the target T2, SXR. The data set is described as follows: Thermofluor thermal shift; SXR 6 µM with 4-androstene 50 µM; peptide 100 µM.

`CC[C@H](C)C(=O)O[C@H]1C[C@@H](C)C=C2C=C[C@H](C)[C@H](CC[C@@H]3C[C@@H](O)CC(=O)O3)[C@H]21` [Lovastatin]: in data set [1], the dissociation constant (Kd) (commonly a measure of binding affinity in units of concentration) came out at 0.55 µM, the “ΔΔTm SRC1-NR2” value is recorded as 3.0, the ΔTm ligand was 6.3 °C and the “Probability Agonist (statistical probability of agonist state)” value came out at 0.85. For the same compound, the ΔTm at 100 µM in data set [1] was 1.2 °C. In addition, in data set [2], the fold activation was 5-fold.

Regarding `CC(=O)O[C@H]1C(=O)[C@@]2(C)[C@H]([C@H](OC(=O)c3ccccc3)[C@]3(O)C[C@H](OC(=O)[C@H](O)[C@@H](NC(=O)c4ccccc4)c4ccccc4)C(C)=C1C3(C)C)[C@]1(OC(C)=O)CO[C@@H]1C[C@@H]2O` [Taxol], in data set [1], the Kd came out at 23 µM, the “ΔΔTm SRC1-NR2” value was 2.5, the ΔTm ligand came out at 1.3 °C and the ΔTm at 100 µM was 4.7 °C. The EC50 (usually the concentration that produces a half-maximal response) in data set [2] was 5 µM.

As to `C[C@]12C[C@H](O)[C@H]3[C@@H](CCC4=CC(=O)CC[C@@]43C)[C@@H]1CC[C@@H]2C(=O)CO` [Corticosterone], in data set [1], the dissociation constant Kd came to 1.32 µM, the “ΔΔTm SRC1-NR2” value worked out at 2.7, the ΔTm ligand came out at 5 °C and the “Probability Agonist (statistical probability of agonist state)” value was found to be 0.93. For the same compound, the ΔTm at 100 µM in [1] stood at 0.5 °C. In data set [2], the fold activation is 12 fold.

In the case of “co-repressor peptide NCoR-1 (from UniProt O75376 2044-2066)”, the ΔΔTm in data set [3] amounted to 1.2 °C; in data set [4] it was 6.7 °C; in data set [6] it was 3.7 °C; in data set [9], 3.4 °C; in data set [11], 1.4 °C; in data set [13], 3.6 °C. For the same compound, the ΔΔTm came to 3.8 °C in data set [14]; 0.5 °C in [18]; 3.5 °C in [19]; 4.7 °C in [23]; 1 °C in data set [24]; 2.3 °C in data set [27]. The ΔΔTm in data set [31] worked out at 3.6 °C. Also, the change in Tm stabilization from the receptor-ligand ΔTm in [5] is 0.3 °C; in data set [7], 0.1 °C; in data set [8], -0.7; in data set [10], 0.4 °C; in data set [12], -0.6; in data set [15], 0 °C. For the same compound, the change in Tm stabilization from the receptor-ligand ΔTm was 0.1 °C in [16]; 0 °C in [17]; -0.7 in data set [20]; -0.3 in [21]; -0.3 in data set [22]; 0.3 in [25]. Also, the change in Tm stabilization from the receptor-ligand ΔTm in data set [26] was -0.4 °C; in data set [28], -0.1 °C; in data set [29], -0.7 °C; in data set [30], 0 °C.
